Assay results published in patent US20260183411A1, “TARGETING SORTILIN” (priority 2024, published 2026).

Key:
[1] = Murine hematotoxicity assay; type: in vivo, mouse; conditions: 3 mg/kg i.v. QW×4, BALB/c mice
Method: (§1) Murine hematotoxicity experiments were conducted at Charles River Laboratories and the care and use of animals was conducted in accordance with the regulations of the Association for Assessment and Accreditation of Laboratory Animal Care (AAALAC). Wild type BALB/c, female, 7-8 weeks, weighing approximately 18-22 g were randomized and dosed intravenously with control or test articles at a QW×4 schedule. Dosing volume was adjusted based on body weight and was administered at 10 mL/Kg. PDCs were dissolved in 25 mM Histidine 10% sucrose pH 7 and 3 mg/kg was administered. Free MMAE payload was also tested, and similarly dissolved in 25 mM Histidine 10% sucrose pH 7 and administered to the mice at a dose of […] by i.v. injection at a QW×4 schedule. 3 days following each dose, 150 μL of whole blood was collected via submandibular method and placed in K2 EDTA tubes stored on ice. Blood neutrophil counts were performed on the day of collection by IDEXX labs. Body weights were recorded twice a week until study endpoint.
as §1, with “As outlined in the material” for “Murine hematotoxicity experiments were conducted at Charles River Laboratories”, “methods” for “the care and use”, “Example 1, wild” for “animals was conducted in accordance with the regulations of the Association for Assessment and Accreditation of Laboratory Animal Care (AAALAC). Wild”, “PDCs were dissolved in 25 mM Histidine 10% sucrose pH 7 and 3 mg/kg was administered.” left out

SORT1 = target: T1, SORT1 (Homo sapiens, UniProt Q99523); experiment: FP competition binding assay
T1 construct: Human SORT1 (78-755)-His (Acrobiosystems); His (C); purchased Acrobiosystems SON-H52H5
T1 sequence (Q99523 78-755): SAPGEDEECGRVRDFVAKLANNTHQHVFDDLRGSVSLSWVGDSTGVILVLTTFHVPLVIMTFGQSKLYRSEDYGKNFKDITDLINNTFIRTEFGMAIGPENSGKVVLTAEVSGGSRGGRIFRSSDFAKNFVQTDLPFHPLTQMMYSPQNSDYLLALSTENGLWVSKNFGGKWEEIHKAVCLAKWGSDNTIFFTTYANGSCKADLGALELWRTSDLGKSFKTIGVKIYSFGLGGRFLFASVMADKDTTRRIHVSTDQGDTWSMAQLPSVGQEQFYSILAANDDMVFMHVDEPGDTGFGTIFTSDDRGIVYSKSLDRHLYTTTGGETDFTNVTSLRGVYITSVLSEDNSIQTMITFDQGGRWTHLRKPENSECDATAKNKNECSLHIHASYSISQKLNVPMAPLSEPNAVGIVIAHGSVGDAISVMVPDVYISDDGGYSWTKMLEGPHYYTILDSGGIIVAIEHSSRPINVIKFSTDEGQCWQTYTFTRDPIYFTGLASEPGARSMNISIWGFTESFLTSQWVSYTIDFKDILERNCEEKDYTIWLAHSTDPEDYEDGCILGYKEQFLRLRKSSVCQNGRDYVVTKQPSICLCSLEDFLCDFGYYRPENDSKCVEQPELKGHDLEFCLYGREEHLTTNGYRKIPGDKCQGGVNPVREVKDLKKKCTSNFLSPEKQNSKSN
Method: Competition binding studies were conducted in a similar manner to the direct binding protocol. Unlabeled peptides were prepared with a 12-point, two-fold dilution series in a V-bottom 96-well plate for a total volume of 25 uL with a starting concentration of 50 μM. A 10× working stock of the FAM labeled peptide was prepared as described for the Direct binding experiment.
A 500 nM working solution (EC80) of target protein was prepared in the FP buffer (1×PBS, pH 7.4, 0.1% Tween-20). An aliquot of 20 μL of the 500 nM working solution was then added to 2.5 μL of the FAM-peptide, after which 2.5 μL of the unlabeled peptide dilution series was added and mixed by pipetting in a V-bottom 96-well plate. […] The 384-well plate was then centrifuged 1 min, 4000 rpm and fluorescence and polarization of dye measured on a Biotek Synergy Neo2 plate reader using the same settings as for the Direct Binding experiment. Data were then fitted to a One site—Fit log IC50 curve in GraphPad to calculate the IC50.
The various conjugates were evaluated in a competitive fluorescence polarization study as described elsewhere herein.

CC[C@H](C)[C@@H]([C@@H](CC(=O)N1CCC[C@H]1[C@H](OC)[C@@H](C)C(=O)N[C@H](C)[C@@H](O)c1ccccc1)OC)N(C)C(=O)[C@@H](NC(=O)[C@H](C(C)C)N(C)C(=O)OCc1ccc(NC(=O)[C@H](CCCNC(N)=O)NC(=O)[C@@H](NC(=O)CCCC(=O)NCCC(=O)N(C)CC(=O)N(C)CC(=O)N(C)CC(=O)N(C)CC(=O)N[C@@H](C)C(=O)N2CCC[C@H]2C(=O)N[C@@H](CCCNC(=N)N)C(=O)N[C@@H](Cc2c[nH]c3ccccc23)C(=O)N[C@@H](CC(=O)O)C(=O)N[C@@H](C)C(=O)N2CCC[C@H]2C(=O)N[C@@H](CC(C)C)C(=O)N[C@@H](CCCNC(=N)N)C(=O)N[C@@H](CC(=O)O)C(=O)N2CCC[C@H]2C(=O)N[C@@H](C)C(=O)N[C@@H](CC(C)C)C(=O)N[C@@H](CCCNC(=N)N)C(=O)N[C@@H](CCC(N)=O)C(=O)N[C@@H](CC(C)C)C(=O)N[C@@H](CC(C)C)C(=O)O)C(C)C)cc1)C(C)C [PRGN_WT_PDC]
blood neutrophil counts compared to vehicle or MMAE treatment [1]: reduced neutrophil counts | increase in affinity relative to parent homing peptide (SORT1): ~2.5 ×
